Results on one substance are retold here after patent publication US20240000930A1.

The target in experiment [1] is carboxymethyl lysine conjugated to keyhole limpet hemocyanin (CML-KLH). The experiment can be described thus: direct binding ELISA, CML-KLH coat 1 ug/mL, antibody at 50 ug/mL.
For experiment [2] the target is unchanged. The experiment is described as follows: direct binding ELISA, CML-KLH coat 1 ug/mL, antibody at 0.07 ug/mL.
For experiment [3] the target is unchanged. The experiment is described as follows: direct binding ELISA, CML-KLH coat 1 ug/mL, antibody at 0.21 ug/mL.
The target is the same in experiment [4]. The experiment is described as follows: direct binding ELISA, CML-KLH coat 1 ug/mL, antibody at 0.62 ug/mL.
The target is the same in experiment [5]. The experiment can be described thus: direct binding ELISA, CML-KLH coat 1 ug/mL, antibody at 1.85 ug/mL.
Experiment [6] shares this target. The experiment is described as follows: direct binding ELISA, CML-KLH coat 1 ug/mL, antibody at 5.56 ug/mL.
For experiment [7] the target is unchanged. The experiment is described as follows: direct binding ELISA, CML-KLH coat 1 ug/mL, antibody at 16.67 ug/mL.

Regarding “anti-carboxymethyl lysine (CML) antibody (R&D Systems, MAB3247)”, the OD450 absorbance came to 0.462 OD450 in experiment [1]; 0.086 OD450 in experiment [2]; 0.075 OD450 in experiment [3]; 0.083 OD450 in experiment [4]; 0.092 OD450 in experiment [5]; 0.165 OD450 in experiment [6]. The substance further showed an OD450 absorbance in experiment [7] of 0.312 OD450.
